Reference: patent US20220135701A1 (Genentech, published 2022)

T1: human MerTK (human, UniProt Q12866 26-499)
T1 construct: also called HuMER
T1 sequence: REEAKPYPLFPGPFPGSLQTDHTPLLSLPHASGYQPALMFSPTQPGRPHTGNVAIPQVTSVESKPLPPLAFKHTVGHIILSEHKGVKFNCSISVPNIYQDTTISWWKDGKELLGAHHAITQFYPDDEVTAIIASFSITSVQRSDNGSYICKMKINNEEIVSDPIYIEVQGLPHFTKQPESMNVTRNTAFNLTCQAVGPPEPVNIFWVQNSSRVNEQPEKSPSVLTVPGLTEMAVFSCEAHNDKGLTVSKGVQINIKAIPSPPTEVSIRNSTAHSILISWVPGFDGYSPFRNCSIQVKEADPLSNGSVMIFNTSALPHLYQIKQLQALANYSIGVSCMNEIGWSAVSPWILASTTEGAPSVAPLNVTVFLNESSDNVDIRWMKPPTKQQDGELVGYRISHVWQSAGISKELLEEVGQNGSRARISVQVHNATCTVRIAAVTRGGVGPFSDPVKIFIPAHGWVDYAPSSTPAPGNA


Biological target: T1, human MerTK
Assay: SPR BIAcore T200, Ab captured, 37C
Method: Each humanized mutation variant was subject to BIAcore analysis to determine the important rabbit residues for binding and stability. Binding affinity determinations were obtained using Surface Plasmon Resonance (SRP) measurements from a BIAcore™-T200 instrument. Briefly, each humanized mutation variant antibody was captured to achieve approximately 100 RU (Response Units). Then, 3-fold serial dilutions of human MerTK (0.4 nM to 100 nM) diluted in HBS-EP buffer (0.01M HEPES pH 7.4, 0.15M NaCl, 3 mM EDTA and 0.05% v/v surfactant P20) was injected into the BIAcore™-T200 instrument at 37° C. with a flow rate of 30 μl/min. Association rates (kₒₙ) and dissociation rates (koff) were calculated using a simple one-to-one Langmuir binding model (BIAcore T200 evaluation software version 2.0). The equilibrium dissociation constant (KD) was calculated as the ratio koff/kₒₙ.

Binder	Kd [nM]
h9E3.FN.V1 HC F91Y (antibody, name in Kabat numbering, V domains shown, Framework variant of h9E3.FN.v1 (human IgG1)) VH: EQQLVESGGGLIQPGGSLRLSCAVSGFSLSSNAMSWVRQAPGKGLEWIGIISSSGSTYSASWAKGRFTISKDSSKNTMYLQMNSLRAEDTAVYYCARVGFFVGYGAYDYGIIHRLDLWGQGTLVTVSS VL: DAQLTQSPSTLSASVGDRVTITCQSSKSIYNNNWLSWYQQKPGKPPKLLIYDASDLASGVPSRFSGSGSGTEFTLTISSLQPDDFATYYCAGGYSGDSDYAFGGGTKVEIK	11.5
h9E3.FN.V1 HC G49S (antibody, human IgG1, name in Kabat numbering, V domains shown, Framework variant of h9E3.FN.v1 (human IgG1)) VH: EQQLVESGGGLIQPGGSLRLSCAVSGFSLSSNAMSWVRQAPGKGLEWISIISSSGSTYSASWAKGRFTISKDSSKNTMYLQMNSLRAEDTAVYFCARVGFFVGYGAYDYGIIHRLDLWGQGTLVTVSS VL: DAQLTQSPSTLSASVGDRVTITCQSSKSIYNNNWLSWYQQKPGKPPKLLIYDASDLASGVPSRFSGSGSGTEFTLTISSLQPDDFATYYCAGGYSGDSDYAFGGGTKVEIK	5.6
h9E3.FN.V1 HC I48V (antibody, human IgG1, name in Kabat numbering, V domains shown, Framework variant of h9E3.FN.v1 (human IgG1)) VH: EQQLVESGGGLIQPGGSLRLSCAVSGFSLSSNAMSWVRQAPGKGLEWVGIISSSGSTYSASWAKGRFTISKDSSKNTMYLQMNSLRAEDTAVYFCARVGFFVGYGAYDYGIIHRLDLWGQGTLVTVSS VL: DAQLTQSPSTLSASVGDRVTITCQSSKSIYNNNWLSWYQQKPGKPPKLLIYDASDLASGVPSRFSGSGSGTEFTLTISSLQPDDFATYYCAGGYSGDSDYAFGGGTKVEIK	10.2
h9E3.FN.V1 HC K71R (antibody, human IgG1, name in Kabat numbering, V domains shown, Framework variant of h9E3.FN.v1 (human IgG1)) VH: EQQLVESGGGLIQPGGSLRLSCAVSGFSLSSNAMSWVRQAPGKGLEWIGIISSSGSTYSASWAKGRFTISRDSSKNTMYLQMNSLRAEDTAVYFCARVGFFVGYGAYDYGIIHRLDLWGQGTLVTVSS VL: DAQLTQSPSTLSASVGDRVTITCQSSKSIYNNNWLSWYQQKPGKPPKLLIYDASDLASGVPSRFSGSGSGTEFTLTISSLQPDDFATYYCAGGYSGDSDYAFGGGTKVEIK	41.3
h9E3.FN.V1 HC M78L (antibody, human IgG1, name in Kabat numbering, V domains shown, Framework variant of h9E3.FN.v1 (human IgG1)) VH: EQQLVESGGGLIQPGGSLRLSCAVSGFSLSSNAMSWVRQAPGKGLEWIGIISSSGSTYSASWAKGRFTISKDSSKNTLYLQMNSLRAEDTAVYFCARVGFFVGYGAYDYGIIHRLDLWGQGTLVTVSS VL: DAQLTQSPSTLSASVGDRVTITCQSSKSIYNNNWLSWYQQKPGKPPKLLIYDASDLASGVPSRFSGSGSGTEFTLTISSLQPDDFATYYCAGGYSGDSDYAFGGGTKVEIK	12.5
h9E3.FN.V1 HC Q2V (antibody, human IgG1, name in Kabat numbering, V domains shown, Framework variant of h9E3.FN.v1 (human IgG1)) VH: EVQLVESGGGLIQPGGSLRLSCAVSGFSLSSNAMSWVRQAPGKGLEWIGIISSSGSTYSASWAKGRFTISKDSSKNTMYLQMNSLRAEDTAVYFCARVGFFVGYGAYDYGIIHRLDLWGQGTLVTVSS VL: DAQLTQSPSTLSASVGDRVTITCQSSKSIYNNNWLSWYQQKPGKPPKLLIYDASDLASGVPSRFSGSGSGTEFTLTISSLQPDDFATYYCAGGYSGDSDYAFGGGTKVEIK	10.2
h9E3.FN.V1 HC S73N (antibody, human IgG1, name in Kabat numbering, V domains shown, Framework variant of h9E3.FN.v1 (human IgG1)) VH: EQQLVESGGGLIQPGGSLRLSCAVSGFSLSSNAMSWVRQAPGKGLEWIGIISSSGSTYSASWAKGRFTISKDNSKNTMYLQMNSLRAEDTAVYFCARVGFFVGYGAYDYGIIHRLDLWGQGTLVTVSS VL: DAQLTQSPSTLSASVGDRVTITCQSSKSIYNNNWLSWYQQKPGKPPKLLIYDASDLASGVPSRFSGSGSGTEFTLTISSLQPDDFATYYCAGGYSGDSDYAFGGGTKVEIK	12.3
h9E3.FN.V1 HC V24A (antibody, human IgG1, name in Kabat numbering, V domains shown, Framework variant of h9E3.FN.v1 (human IgG1)) VH: EQQLVESGGGLIQPGGSLRLSCAASGFSLSSNAMSWVRQAPGKGLEWIGIISSSGSTYSASWAKGRFTISKDSSKNTMYLQMNSLRAEDTAVYFCARVGFFVGYGAYDYGIIHRLDLWGQGTLVTVSS VL: DAQLTQSPSTLSASVGDRVTITCQSSKSIYNNNWLSWYQQKPGKPPKLLIYDASDLASGVPSRFSGSGSGTEFTLTISSLQPDDFATYYCAGGYSGDSDYAFGGGTKVEIK	8.7
